Measurements from paper PMC3627194, “Xentry, a new class of cell-penetrating peptide uniquely equipped for delivery of drugs” (Scientific Reports, 2013).
Non-standard residues stand in square brackets, D forms with d. Residues, ends and D or L forms follow the SMILES beside them. No end group written: not given here. *: point of attachment. FITC = O=C1OC2(c3ccc(O)cc3Oc3cc(O)ccc32)c2ccc(NC(=S)*)cc21; Biotin = O=C1N[C@H]2[C@H](CS[C@H]2CCCCC(=O)*)N1

How the values were obtained:
HepG2 cells = assay: Assay to test for cell permeability of peptides; assay type: cell-based; conditions: 3 h
Method: Figure 1 Cell-permeability of X-protein peptides. (a) X-protein peptides aa 1–20 and 16–35 are cell-permeable. Four FITC-labelled peptides encompassing aa 1–20, 16–35, 21–40 and 34–53 from the N-terminal region of the X-protein were incubated at 10 μM with HepG2 cells and their uptake by the cells recorded by confocal microscopy. Cell nuclei were stained blue with DAPI. (b) The sequence of the first 35 N-terminal residues of the HBV X-protein are shown with the sequence of Xentry (LCLRPVG; residues 16–22) highlighted in red. Short FITC-labelled peptides (10 μM) aa 16–26, 16–24 and 16–22 (Xentry) derived from peptide aa 16–35 also permeate HepG2 cells (upper panel). […] Cell nuclei were stained blue with DAPI. […] Cell nuclei were stained blue with DAPI. Scale bar, 50 μm.
HepG2 cells (ATCC, Manassas, VA) were seeded into 8-well chamber slides at 1 × 10^5 cells per well in MEM media (Gibco, Life Technologies New Zealand Ltd) containing 10% FCS and PSG. […] L-isomeric peptides were diluted in 500 μl of MEM media without FCS, whereas D-isomeric peptides were diluted in the same media containing FCS, and each added to cells at a final concentration of 10 μM, or as indicated. The cells were incubated for 3 h at 37°C in a 5% CO2 atmosphere, washed with PBS, fixed with 4% formaldehyde for 30 min, and washed thrice with PBS. A drop of Prolong Gold anti-fade reagent with DAPI (Invitrogen, Life Technologies New Zealand Ltd) was added, and the cells mounted and examined with a Nikon E600 fluorescence microscope or a Leica TCS-SP2 confocal microscope.
(§1) Supplementary Figure 3. The D-isomeric form of Xentry aa 16-22 is cell permeable, and is stable in serum for at least 4 h.
(§2) (a) FITC-labelled D-isomeric Xentry was incubated with HepG2 cells at concentrations of […] for 3 h.
(§3) Uptake was recorded by fluorescence microscopy. Cell nuclei were stained with DAPI. (b) FITC-labelled L-isomeric and D-isomeric forms of Xentry were incubated in serum for 0, 1, and 4 h before incubation with HepG2 cells. Cell nuclei were stained with DAPI. Scale bar, 50 μm. […]

[1] = assay type: in vitro ADME; conditions: FITC-labelled peptide incubated in serum 0, 1 and 4 h, then incubated with HepG2 cells; read-out cell uptake by fluorescence microscopy
Method: as §1, §2, §3

syndecan-4 = molecular target: T1, syndecan-4 (Homo sapiens, UniProt P31431); assay: Anti-syndecan 4 antibody blockade of Xentry uptake by HepG2 cells; assay type: cell-based; conditions: FITC-lclrpvg 10 μM, 3 h
T1 construct: endogenous in cells; host or cells: HepG2 (ATCC)
T1 sequence (P31431 19-198): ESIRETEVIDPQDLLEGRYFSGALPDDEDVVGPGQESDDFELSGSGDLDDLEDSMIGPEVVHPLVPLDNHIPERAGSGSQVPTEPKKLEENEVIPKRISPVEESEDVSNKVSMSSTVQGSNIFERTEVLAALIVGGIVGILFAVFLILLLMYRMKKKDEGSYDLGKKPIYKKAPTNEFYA
Method: Cell nuclei were stained blue with DAPI. […] Scale bar, 50 μm.
The media was replaced with 500 μl of MEM media containing 10% FCS and either 1 μg/ml of a goat anti-human syndecan-4 antibody (R&D Systems, Minneapolis, MN), or 1 μg/ml of the control goat anti-human TNF-related apoptosis-inducing ligand (TRAIL) antibody (Santa Cruz Biotechnology Inc., Santa Cruz, CA). The cells were then incubated at 37°C and 5% CO2 for 30 min. FITC-labelled Xentry (FITC-lclrpvg) was added at a final concentration of 10 μM and the cells incubated for 3 h at 37°C in a 5% CO2 atmosphere. The cells were washed thrice with PBS, fixed with 4% formaldehyde for 15 min, washed with PBS, and DAPI added for visualization of cell nuclei. They were examined using a Nikon E600 fluorescence microscope, and photographed.

WM-266-4 melanoma cells [2] = assay: Apoptosis of melanoma cells by Xentry-conjugated anti-B-raf antibody (annexin-V fluos); assay type: cell-based; conditions: annexin-V fluos staining
Method: HepG2 cells were seeded at 1 × 10^5 cells per well into 8-well chamber slides, and cultured overnight at 37°C in an atmosphere of 5% CO2. They were washed thrice with serum-free MEM media and resuspended in 500 μl of serum-free MEM. A 30 μl solution containing conjugation buffer, 0.85 μg of the Xentry peptide biotin-[sequence], 9 μg of a FITC-labelled rabbit IgG (Sigma, MO) or 1 μg of a rabbit polyclonal anti-B-raf antibody (Sigma, MO), and 4.8 μg of transglutaminase was incubated for 1 h at 37°C. The resulting conjugates were added to the cells, which were incubated for 3 h at 37°C and washed thrice with PBS. […] Cells incubated with the Xentry-anti-B-raf antibody conjugate were stained with annexin-V Fluos (Roche Diagnostics NZ Ltd., Auckland) to detect cell apoptosis. The cells were examined using a Nikon E600 fluorescence microscope, and photographed.

WM-266-4 melanoma cells [3] = assay: Xentry-KALA fusion peptide delivery of anti-B-raf siRNA, apoptosis (annexin-V fluos); assay type: cell-based; conditions: 10 μM Xentry-KALA fusion peptide with 30 nM Tex615-labelled siRNA against B-raf, 72 h
Method: Figure 3 Xentry-mediated delivery of antibody and siRNA cargoes into cells. (a) Uptake of Xentry-conjugated and unconjugated FITC-labelled rabbit IgG by HepG2 cells. Cell nuclei were stained blue with DAPI. (b) Representative cell showing staining of tubulin by a Cy3-labelled anti-β-tubulin antibody delivered to HepG2 cells by Xentry. HepG2 cells were incubated with the Xentry- anti-β-tubulin antibody conjugate for 1 h, washed, then incubated and photographed 24 h later. For comparison, a representative fixed and permeabilized cell is shown which has been stained by the free anti-β-tubulin antibody. […] (c) The abilities of a Xentry-conjugated and unconjugated anti-B-raf antibody to induce the apoptosis of WM-266-4 melanoma cells, as evidenced by staining of cells with annexin-V fluos (green). […] For comparison, the anti-B-raf siRNA was transfected into cells using the PolyMag agent. The siRNA was omitted from controls. Scale bar, 50 μm.
A 600 μl solution was prepared containing 30 nM of a Tex615-labelled siRNA against B-raf (sense 5′-XAGAAUUGGAUCUGGAUCAUTTY-3′; antisense 5′-[…]-3′; X = C12 amino, Y = Tex615) (Integrated DNA Technologies, Iowa) and 10 μM of a Xentry-KALA fusion peptide (biotin-[…]; Peptide 2.0 Inc., Chantilly, VA). […] Cells were stained with annexin-V Fluos to detect apoptotic cells by fluorescence microscopy, and photographed. […]

[4] = Biodistribution of a Xentry-β-galactosidase conjugate in mice (X-gal staining); assay type: in vivo, Balb/c mice
Method: One milligram of recombinant β-galactosidase (Medicago AB, Uppsala, Sweden) was cross-linked to 0.2 mg of a FITC-labelled Xentry peptide fused to a polyglutamine stretch (FITC-lclrpvggrrQQQQQQrr; Peptide 2.0 Inc., Chantilly, VA) with 4.8 μg of transglutaminase in 40 μl of transglutaminase buffer for 1 h at 37°C. […] Control mice (one mouse per time point) were intravenously injected with 1 mg of unconjugated β-galactosidase. The heart, lungs, liver, spleen, pancreas, kidneys, stomach, small intestine, colon, muscle and brain of each mouse were collected, and frozen at −80°C. Frozen organ sections were fixed in 0.25% glutaraldehyde for 15 min, washed thrice with PBS and stained with 1 mg/ml of X-gal (Sigma, MO) for 3 h at 37°C. The sections were washed thrice with PBS, examined by light microscopy and photographed.

live HepG2 cells = conditions: live unfixed cells, 3 h 37°C, β-galactosidase substrate C12FDG 10 min, fluorescence microscopy
Method: (a) Visualization of the internalization of an unlabelled Xentry-β-galactosidase conjugate, and unconjugated β-galactosidase, after a 10 min incubation with live cells preloaded with the green fluorescent substrate C12FDG.
HepG2 cells were seeded at 1 × 10^5 cells per well into 8-well chamber slides, and cultured overnight at 37°C in a 5% CO2 atmosphere. They were washed thrice with serum-free MEM media, and 500 μl of serum-free MEM added to the wells. A Xentry peptide (biotin-[sequence]; Peptide 2.0 Inc., Chantilly, VA) where LCLRP was fused to a polyglutamine stretch was conjugated to recombinant β-galactosidase. A 30 μl solution containing conjugation buffer (5 mM CaCl2, 1 mM DTT, 50 mM Tris-HCl), 0.84 μg of Xentry peptide, 16.5 μg of β-galactosidase (5 U; Sigma, MO), and 4.8 μg of transglutaminase (Ajinomoto, Itasca, IL) was incubated for 1 h at 37°C. The resulting conjugate was added to the cells, which were incubated for 3 h at 37°C. The cells were washed thrice with PBS, and the β-galactosidase substrate 5-dodecanoylaminofluorescein di-β-D-galactopyranoside (Imagene C12FDG; Invitrogen Life Technologies New Zealand Ltd) added, followed by incubation for 10 min at 37°C. The cells were washed, and examined using a Nikon E600 fluorescence microscope and photographed.

## CC(C)C[C@@H](NC(=O)[C@@H](CS)NC(=O)[C@@H](CC(C)C)NC(=S)Nc1ccc2c(c1)C(=O)OC21c2ccc(O)cc2Oc2cc(O)ccc21)C(=O)N[C@H](CCCNC(=N)N)C(=O)N1CCC[C@@H]1C(=O)N[C@@H](C(=O)NCC(=O)O)C(C)C [D-isomeric form] ({FITC}-[dL][dC][dL][dR][dP][dV]G-OH)
HepG2 cells; FITC-labelled D-isomeric Xentry 10, 20, 50 and 100 µM
  Uptake into HepG2 cells at increasing concentrations: increased uptake
HepG2 cells; FITC-labelled D-isomeric Xentry, media containing FCS, fluorescence microscopy
  Cell permeability (HepG2 cells): cell-permeable
[1]
  Time stable in serum: at least 4 h
syndecan-4; 1 μg/ml control antibody against TRAIL
  Uptake by HepG2 cells after control anti-TRAIL antibody: no effect
syndecan-4; 1 μg/ml goat anti-human syndecan-4 antibody 30 min pre-incubation, MEM 10% FCS
  Uptake by HepG2 cells after anti-syndecan-4 antibody: blocked

## Biotin-LCLRPVGGGRRRQQQQQQRRR [Xentry-anti-B-raf antibody conjugate, rabbit polyclonal anti-B-raf antibody conjugated to Xentry polyglutamine peptide]
WM-266-4 melanoma cells [2]
  Apoptosis of WM-266-4 melanoma cells: undergo apoptosis

## Biotin-LCLRPVGGGWEAKLAKALAKALAKHLAKALAKALKACEA (cysteine pairing not given here) [Xentry-KALA fusion peptide, tested as complex with anti-B-raf siRNA]
WM-266-4 melanoma cells [3]
  Apoptosis of WM-266-4 melanoma cells: causing cell apoptosis

## FITC-lclrpvggrrQQQQQQrr [Xentry-β-galactosidase conjugate, recombinant β-galactosidase cross-linked to FITC-labelled D-form Xentry polyglutamine peptide (injected into mice)]
[4]; 1 mg i.v., 1 h, intensity of staining diminished
  Retention in stained organs at 1 h, except for the brain: retained the bioactive conjugate
[4]; 1 mg i.v., 6 h
  β-galactosidase activity in organs at 6 h: only the spleen and small intestine retained some β-galactosidase activity
[4]; 1 mg i.v., 24 h, data not shown
  β-galactosidase activity in organs by 24 h: completely lost
[4]; 1 mg i.v., X-gal stained sections
  Distribution within organs: concentrated in the enterocytes of the small intestine, epithelium of the stomach, and in the marginal zone or marginal sinus of the spleen
[4]; 1 mg i.v., data not shown
  Staining of pancreas, colon and muscle at 15 min: poorly stained
[4]; 1 mg i.v., lungs, liver, spleen, kidneys, stomach, small intestine, colon, muscle, brain listed as stained
  X-gal staining of organs at 15 min: most of the organs stained blue

## unconjugated β-galactosidase: recombinant β-galactosidase without Xentry, control [reference compound]
[4]; 1 mg unconjugated β-galactosidase i.v., one mouse per time point, data not shown
  X-gal staining of organs: did not stain
Live HepG2 cells
  Uptake by live HepG2 cells: not
